Stoichiometry N data for one molecule are collected here from publication PMC9926122.

The target of the test is T1, recombinant EB1 (HS-AFM and microtubule experiments) (human), Q15691.
T1 chain: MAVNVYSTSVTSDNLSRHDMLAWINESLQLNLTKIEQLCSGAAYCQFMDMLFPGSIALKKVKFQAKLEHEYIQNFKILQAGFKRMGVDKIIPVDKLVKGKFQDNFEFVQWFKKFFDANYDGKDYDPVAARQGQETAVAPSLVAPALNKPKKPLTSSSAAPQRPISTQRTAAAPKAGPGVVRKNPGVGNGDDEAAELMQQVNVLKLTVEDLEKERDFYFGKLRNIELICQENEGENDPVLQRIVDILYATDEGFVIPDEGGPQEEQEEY
Nature of the test: high-speed atomic force microscopy (HS-AFM); proteins (10-30 nM; 10 nM in the frames shown) in BRB80 buffer (80 mM Pipes, 1 mM EGTA, 1 mM MgCl2, pH 6.9) on mica, tapping mode, 150 ms per frame; EB1 alone, Ska1 alone and their mixture. The settings on record: remark: other sources report otherwise.

B1: recombinant EB1 (HS-AFM and microtubule experiments), Q15691 1-268 (natural protein)
chain: T1 chain
One may read the stoichiometry N as the number of molecules, sites or subunits per partner or assembly. As for B1, the stoichiometry N was determined as 2.
